B1: Regulator of chromosome condensation (Homo sapiens), P18754 (parent)
chain: MSPKRIAKRRSPPADAIPKSKKVKVSHRSHSTEPGLVLTLGQGDVGQLGLGENVMERKKPALVSIPEDVVQAEAGGMHTVCLSKSGQVYSFGCNDEGALGRDTSVEGSEMVPGKVELQEKVVQVSAGDSHTAALTDDGRVFLWGSFRDNNGVIGLLEPMKKSMVPVQVQLDVPVVKVASGNDHLVMLTADGDLYTLGCGEQGQLGRVPELFANRGGRQGLERLLVPKCVMLKSRGSRGHVRFQDAFCGAYFTFAISHEGHVYGFGLSNYHQLGTPGTESCFIPQNLTSFKNSTKSWVGFSGGQHHTVCMDSEGKAYSLGRAEYGRLGLGEGAEEKSIPTLISRLPAVSSVACGASVGYAVTKDGRVFAWGMGTNYQLGTGQDEDAWSPVEMMGKQLENRVVLSVSSGGQHTVLLVKDKEQS

Variants of: B1
Details: with h2b11, P02281

Effect of a mutation on the interaction, disrupting interaction:
R234A
K232A;R234A;R237A
K232A
R237A
